Measurements reported in patent US20250115926A1, “DEREGULATED DHS AND TYRA ENZYMES OF GRASSES ENABLE EFFICIENT PRODUCTION OF BOTH TYROSINE AND PHENYLALANINE” (Wisconsin Alumni Research Foundation, priority 2023, published 2025).
One block for each molecule: values may come before it.

Columns and labels:
[1] = tested on: Nicotiana benthamiana leaves; assay: Transient expression of TyrA genes in Nicotiana benthamiana leaves (CaMV 35S promoter), tyrosine by HPLC; format: in vivo; conditions: infiltrated leaves, 72 hours
Description: Agrobacterium tumefaciens strain GV3101 transformed with the plant expression constructs were grown at 28° C. for 24 to 36 hours in 10 mL of LB liquid media containing the corresponding antibiotics. The saturated cultures were spun down at 3,000 g for 5 minutes at room temperature and washed twice with 3 mL of induction media (IM; 10 mM MES [2-(N-morpholino) ethanesulfonic acid] buffer pH 5.6, 0.5% glucose, 2 mM NaH2PO4, 20 mM NH4Cl, 1 mM MgSO4, 2 mM KCl, 0.1 mM CaCl2), 0.01 mM FeSO4, and 0.2 mM acetosyringone). After washing, bacteria cultures were incubated in IM for 2 to 3 hours at room temperature in the dark, pelleted at 3000 g for 5 minutes, and resuspended into 3 mL of 10 mM MES buffer pH 5.6 with 0.2 mM acetosyringone. OD600nm was adjusted to a final density of 0.25 units for pAGM4673::TyrA (FIG. 3F) and pICH47822::DHS (FIG. 5A) infiltration, or 0.5 units for pAGM4673::TyrA-DHS co-expression constructs (FIG. 5B) using 10 mM MES buffer pH 5.6 with 0.2 mM acetosyringone. For infiltration of pICH47822::DHS constructs, the Agrobacterium suspensions were adjusted to OD600nm=0.5 and mixed with an equal volume of a suspension of an Agrobacterium clone transformed with pICH4780::p19 under control of the Arabidopsis ubiquitin ligase promoter adjusted to OD600nm=0.5, resulting in a final mixture of 0.25 OD600nm units for each construct. […] Nicotiana benthamiana plants of around 4-weeks-old were infiltrated close to the end of the light period into four different spots per plant, distributed into two leaves at two infiltrations per leaf, with each individual spot corresponding with a different construct/treatment. […]
The infiltrated leaf areas, excluding the midrib and major veins, were harvested at 72 hours after infiltration and frozen immediately in liquid nitrogen. […] A tyrosine peak was detected at the retention time of ˜3.5 minutes using fluorescence detection mode (excitation wavelength 274 nm, emission wavelength 303 nm) and quantified with an authentic tyrosine standard (Alfa Acsar, catalog number AAA1114118). […]

[2] = TyrA feedback inhibition by tyrosine (recombinant enzymes); format: biochemical; conditions: FIG. 12
[3] = tested on: Nicotiana benthamiana leaves; assay: Co-expression of BdTyrA and BdDHS enzymes in Nicotiana benthamiana leaves; format: in vivo
Description: Gene expression data in Brachypodium (FIG. 4B) indicate that BdTyrA1 is co-expressed with BdDHS1b and BdPTAL in the internodes, where we detected a high rate of tyrosine production (FIG. 2). […] We therefore hypothesized that BdTyrA1 and BdDHS1b may co-operate in the high production of tyrosine and phenylalanine observed in grass tissues. To test this possibility, we co-expressed in planta different combinations of BdTyrA enzymes and BdDHS enzymes and measured the impact on phenylalanine and tyrosine levels. To this end, we took advantage of the Golden Gate modular cloning system^52 and assembled the BdTyrA and BdDHS expression cassettes into the same vector backbone (FIG. 13). To avoid causing a strong over-expression, BdTyrA and BdDHS were driven by RuBisCO small subunit promoters from Arabidopsis (PAtRbcS3B) and tomato (PSIRbcS3A), respectively (FIG. 13)^51. […] Similarly, no significant additive effects were observed upon co-expression of the BdTyrA enzymes with feedback-regulated BdDHS2 (FIG. 5B).
Agrobacterium tumefaciens strain GV3101 transformed with the plant expression constructs were grown at 28° C. for 24 to 36 hours in 10 mL of LB liquid media containing the corresponding antibiotics. […]
Aromatic amino acids and shikimate were detected using a Vanquish Horizon Binary UHPLC (Thermo Scientific) coupled to a Q Exactive mass spectrometer (Thermo Scientific). […]

B1: BdTyrA2: TyrA2 arogenate dehydrogenase of Brachypodium distachyon, SEQ ID NO: 35 (protein)
chain: MSSSGRFHQPPSCRRPAALAQSLRASTTTVTCRWRQQYHHPLAAAPLRLRAVPVRATDAARQPFDHLSGAVKSEEGTHPRLKIAIVGFGNYGQFLARTMVQQGHTVLAHSRSDHSAAAATIGASFYADAHDLCECQPDVVLLSTSILSAEAVLRSLPVHRFRRSTLFADVLSVKEFPKNLLLAYLPGDFDVICTHPMFGPESARDGWAGLPFVFDEVRVGDGPARRARADAFLDVFAREGCRMVEMSCAEHDAHAAETQFLTHTVGRMLATLDLKSTPINTKGYETLLRLVDNTCSDSFDLYNGLFMYNNNATELLHRLESAMDSVKRRLFDGLHEVLRRQLFEGSPPLNRDSSFPAESSLDDGR
modifications: Brachypodium distachyon
- tyrosine content compared to the GUS control [1]: did not significantly increase tyrosine levels

- type of inhibition by tyrosine with respect to arogenate [2]: competitive
B2: BdTyrAnc: non-canonical TyrA enzyme of Brachypodium distachyon, SEQ ID NO: 37 (protein)
chain: MASSLVHLSSPAGGRTAAAPPSLLSRFSPNFCAFATLRPGPTRPTAATPKHARARTCAEQEQKQEVAAPCRDAYEKPAVWNTTAADSAEAAPPLRVGIIGFGNFGQFIARGIQRQGHAVLATSRSDYSAYCSAQGIRYFRSLEALCEEQPNVLLVCSSILSTEAVVRAIPFHKLRSDTIVADVLSVKQFPRNLLLEILPPEFGIVCTHPMFGPESGKHGWSTLPFVYDKVRLADKGDQKANCGQFLSIFEGEGCRMVEMSCAEHDRHAAASQFITHTIGRVLAQLNLKSTPINTKGFEALLKLTENTVSDSFDLYYGLFMYNVNATEQIEKLERAFEKVKQMLYGRLHDILRKQIVERVPI
modifications: Brachypodium distachyon
- tyrosine content compared to the GUS control [1]: 8 times
- tyrosine levels relative to the tdTom+YPet control ([3]; RuBisCO small subunit promoters (FIG. 5B)): ~100 times
- decrease of phenylalanine levels compared to YPet with tdTom control ([3]; expressed with tdTom control (FIG. 5B)): 4 times

B3: SbTyrAnc: non-canonical TyrA enzyme of Sorghum bicolor, SEQ ID NO: 43 (protein)
chain: MASSLRHFAGLGCFPAVASTSGSTCCLRRYTPNFCAFVALRPISPPAATATATAKALTSPSPVEQHLQAVVPCHGISDPPAASSAAAVPAAPLRVGIVGFGNFGQFIAGGLQRQGHVVLAASRSDYSVYCASHGIRFFRSVDALCEEQPDVLLICSSILSTEGVVRAIPFRKLRHDTIVADVLSVKEFPRNLLLEVLPPGFGIICTHPMFGPESGKHGWGKLPFVFDKVRVAEDGDQAAKCDQFLSIFEQEGCRMVEMSCAEHDRYAAGSQFITHTIGRVLSQLNLKSTPINTKGYETLLQLTKNTVSDSFDLYYGLFMYNVNATEQLDKLEMAFEKVRQMLSGRLHDFIRKQIVERAAHVPADPSGKLANGLSSSPAARLL
modifications: Sorghum bicolor
- tyrosine content compared to the GUS control [1]: 14 times
